T1: interleukin 18 binding protein (IL-18BP) (UniProt O95998 31-194)
T1 sequence (looked up): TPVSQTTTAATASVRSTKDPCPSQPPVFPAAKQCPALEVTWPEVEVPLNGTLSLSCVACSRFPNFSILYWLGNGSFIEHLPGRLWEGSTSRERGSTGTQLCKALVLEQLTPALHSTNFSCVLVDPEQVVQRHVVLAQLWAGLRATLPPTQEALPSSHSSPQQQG

T2: IL-18 receptors on HEK-Blue IL-18 reporter cells (UniProt Q13478 19-541; O95256 20-599, limits assumed)
T2 sequence (looked up) 1: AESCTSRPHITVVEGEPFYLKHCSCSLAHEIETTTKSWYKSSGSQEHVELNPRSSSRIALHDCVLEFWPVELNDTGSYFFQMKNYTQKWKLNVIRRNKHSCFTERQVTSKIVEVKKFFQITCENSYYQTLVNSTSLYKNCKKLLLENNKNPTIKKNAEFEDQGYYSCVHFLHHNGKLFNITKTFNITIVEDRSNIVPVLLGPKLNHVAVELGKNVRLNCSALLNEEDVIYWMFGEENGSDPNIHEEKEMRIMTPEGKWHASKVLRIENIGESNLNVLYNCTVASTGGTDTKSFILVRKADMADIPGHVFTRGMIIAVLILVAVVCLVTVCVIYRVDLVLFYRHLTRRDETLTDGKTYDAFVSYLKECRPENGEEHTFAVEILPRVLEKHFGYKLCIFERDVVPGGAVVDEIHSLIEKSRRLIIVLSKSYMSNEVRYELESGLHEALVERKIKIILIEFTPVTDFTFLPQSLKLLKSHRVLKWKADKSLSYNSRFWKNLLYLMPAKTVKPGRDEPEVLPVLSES
T2 sequence (looked up) 2: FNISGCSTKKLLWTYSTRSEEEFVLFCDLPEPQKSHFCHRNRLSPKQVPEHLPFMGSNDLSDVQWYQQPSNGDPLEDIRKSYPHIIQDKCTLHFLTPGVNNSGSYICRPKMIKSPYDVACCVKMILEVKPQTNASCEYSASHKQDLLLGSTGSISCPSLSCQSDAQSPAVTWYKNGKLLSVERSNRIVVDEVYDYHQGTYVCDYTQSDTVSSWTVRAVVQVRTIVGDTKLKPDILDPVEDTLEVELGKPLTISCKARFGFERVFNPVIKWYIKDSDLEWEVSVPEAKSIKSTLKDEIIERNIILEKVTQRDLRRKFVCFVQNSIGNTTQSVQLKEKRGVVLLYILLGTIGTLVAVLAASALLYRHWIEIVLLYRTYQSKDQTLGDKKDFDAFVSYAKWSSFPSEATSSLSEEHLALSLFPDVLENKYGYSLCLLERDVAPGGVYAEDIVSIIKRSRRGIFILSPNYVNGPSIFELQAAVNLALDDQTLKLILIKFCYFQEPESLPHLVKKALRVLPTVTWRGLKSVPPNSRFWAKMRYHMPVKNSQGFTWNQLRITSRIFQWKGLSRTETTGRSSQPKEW

T3: IL-18 receptors on HEK-Blue IL-18 reporter cells (UniProt Q13478 19-541; O95256 20-599, limits assumed)
T3 sequence (looked up) 1: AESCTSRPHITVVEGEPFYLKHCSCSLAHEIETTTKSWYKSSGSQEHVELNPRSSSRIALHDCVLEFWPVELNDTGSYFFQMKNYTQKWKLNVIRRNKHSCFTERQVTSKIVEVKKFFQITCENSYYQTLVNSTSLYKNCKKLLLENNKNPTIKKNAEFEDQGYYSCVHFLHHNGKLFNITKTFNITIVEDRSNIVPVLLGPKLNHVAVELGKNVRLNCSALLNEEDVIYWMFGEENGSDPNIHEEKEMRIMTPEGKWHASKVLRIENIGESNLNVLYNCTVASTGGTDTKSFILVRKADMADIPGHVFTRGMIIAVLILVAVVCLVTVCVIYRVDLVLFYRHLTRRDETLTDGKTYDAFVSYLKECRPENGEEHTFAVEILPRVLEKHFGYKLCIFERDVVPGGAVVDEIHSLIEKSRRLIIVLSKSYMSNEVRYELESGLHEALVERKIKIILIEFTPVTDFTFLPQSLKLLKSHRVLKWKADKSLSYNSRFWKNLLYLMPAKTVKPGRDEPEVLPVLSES
T3 sequence (looked up) 2: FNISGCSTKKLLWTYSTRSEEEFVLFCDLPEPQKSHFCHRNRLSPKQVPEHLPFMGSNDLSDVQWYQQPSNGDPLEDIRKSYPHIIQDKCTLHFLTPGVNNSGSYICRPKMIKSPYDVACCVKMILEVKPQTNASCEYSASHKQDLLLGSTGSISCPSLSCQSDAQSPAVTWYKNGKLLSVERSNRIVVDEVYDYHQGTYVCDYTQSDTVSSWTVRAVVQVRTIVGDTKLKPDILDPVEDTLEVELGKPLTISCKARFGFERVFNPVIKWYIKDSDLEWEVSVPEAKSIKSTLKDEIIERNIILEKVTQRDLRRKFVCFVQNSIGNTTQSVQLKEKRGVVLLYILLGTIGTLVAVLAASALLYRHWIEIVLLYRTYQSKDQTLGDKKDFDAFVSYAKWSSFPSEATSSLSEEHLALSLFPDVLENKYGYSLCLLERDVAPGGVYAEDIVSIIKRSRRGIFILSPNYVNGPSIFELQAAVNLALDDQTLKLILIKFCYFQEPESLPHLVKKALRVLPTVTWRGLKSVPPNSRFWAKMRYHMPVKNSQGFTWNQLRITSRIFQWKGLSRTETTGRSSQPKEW

T4: IL-18 binding protein (IL-18BP) (UniProt O95998 31-194)
T4 sequence (looked up): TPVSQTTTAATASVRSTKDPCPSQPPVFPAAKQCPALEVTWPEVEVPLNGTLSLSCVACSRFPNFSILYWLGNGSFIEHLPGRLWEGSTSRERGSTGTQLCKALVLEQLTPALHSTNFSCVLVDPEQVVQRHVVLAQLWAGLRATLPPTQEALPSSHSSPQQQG


What was measured:
Experiment in all cases: cell-based or functional assay
[1] = target: T1, interleukin 18 binding protein (IL-18BP)
[2] = target: T2, IL-18 receptors on HEK-Blue IL-18 …
[3] = target: T3, IL-18 receptors on HEK-Blue IL-18 …; remark: listed apart in the source
[4] = target: T4, IL-18 binding protein (IL-18BP)

Row | Binder | HEK-Blue activity, +100 nM BP, DF-10000 [1] | HEK-Blue activity, +100 nM BP, DF-100,000 [1] | HEK-Blue activity, +100 nM BP, DF-1,000,000 [1] | Ratio (-BP/+BP), DF-10000 [1] | Ratio (-BP/+BP), DF-100,000 [1] | Ratio (-BP/+BP), DF-1,000,000 [1] | HEK-Blue activity, No BP, DF-10000 [2] | HEK-Blue activity, No BP, DF-100,000 [2] | HEK-Blue activity, No BP, DF-1,000,000 [2] | Activity, No BP, DF-100000 [3] | Activity, No BP, DF-500000 [3] | Activity, No BP, DF-2500000 [3] | Activity, +100 nM BP, DF-1000002 [4] | Activity, +100 nM BP, DF-5000003 [4] | Activity, +100 nM BP, DF-25000004 [4] | Ratio (-BP/+BP), DF-1000005 [4] | Ratio (-BP/+BP), DF-5000006 [4] | Ratio (-BP/+BP), DF-25000007 [4]
1 | IL-18 variant T34M, S36T, D37E, D40T, N41M, K53T, S55W (ligand) YFGKLESKLSVIRNLNDQVLFIDQGNRPLFEDMMDTEMRTMAPRTIFIISMYTDWQPRGMAVTISVKSEKISTLSSENKIISFKEMNPPDNIKDTKSDIIFFQRSVPGHDNKMQFESSSYEGYFLASEKERDLFKLILKKEDELGDRSIMFTVQNED | 0.14 | 0.12 | 0.12 | 2.13 | 1.79 | 1.63 | 0.29 | 0.21 | 0.19 |  |  |  |  |  |  |  |  | 
2 | IL-18 variant S36E, D37E, D40R, N41G, K53Y, S55F (ligand) YFGKLESKLSVIRNLNDQVLFIDQGNRPLFEDMTDEEMRRGAPRTIFIISMYYDFQPRGMAVTISVKSEKISTLSSENKIISFKEMNPPDNIKDTKSDIIFFQRSVPGHDNKMQFESSSYEGYFLASEKERDLFKLILKKEDELGDRSIMFTVQNED | 0.16 | 0.19 | 0.14 | 1.19 | 0.64 | 1.06 | 0.2 | 0.12 | 0.14 |  |  |  |  |  |  |  |  | 
3 | IL-18 variant T34L, S36V, D40A, N41S, K53G, S55W (ligand) YFGKLESKLSVIRNLNDQVLFIDQGNRPLFEDMLDVDMRASAPRTIFIISMYGDWQPRGMAVTISVKSEKISTLSSENKIISFKEMNPPDNIKDTKSDIIFFQRSVPGHDNKMQFESSSYEGYFLASEKERDLFKLILKKEDELGDRSIMFTVQNED | 0.12 | 0.12 | 0.14 | 1.81 | 1.6 | 0.97 | 0.22 | 0.19 | 0.14 |  |  |  |  |  |  |  |  | 
4 | IL-18 variant G3P, E6I, K53N, D54W, S55P, T63S, N91L, R104Q (ligand) YFPKLISKLSVIRNLNDQVLFIDQGNRPLFEDMTDSDMRDNAPRTIFIISMYNWPQPRGMAVSISVKSEKISTLSSENKIISFKEMNPPDLIKDTKSDIIFFQQSVPGHDNKMQFESSSYEGYFLASEKERDLFKLILKKEDELGDRSIMFTVQNED |  |  |  |  |  |  |  |  |  | 0.07 | 0.08 | 0.07 | 0.08 | 0.09 | 0.07 | 0.91 | 0.91 | 0.97
5 | IL-18 variant K53V, S55Q (ligand) YFGKLESKLSVIRNLNDQVLFIDQGNRPLFEDMTDSDMRDNAPRTIFIISMYVDQQPRGMAVTISVKSEKISTLSSENKIISFKEMNPPDNIKDTKSDIIFFQRSVPGHDNKMQFESSSYEGYFLASEKERDLFKLILKKEDELGDRSIMFTVQNED | 0.2 | 0.17 | 0.13 | 1 | 0.81 | 0.88 | 0.2 | 0.14 | 0.11 |  |  |  |  |  |  |  |  | 
6 | IL-18 variant K53D, S55Q, H109Y (ligand) YFGKLESKLSVIRNLNDQVLFIDQGNRPLFEDMTDSDMRDNAPRTIFIISMYDDQQPRGMAVTISVKSEKISTLSSENKIISFKEMNPPDNIKDTKSDIIFFQRSVPGYDNKMQFESSSYEGYFLASEKERDLFKLILKKEDELGDRSIMFTVQNED | 0.12 | 0.15 | 0.1 | 1.94 | 1.36 | 1.27 | 0.23 | 0.2 | 0.13 |  |  |  |  |  |  |  |  | 
7 | IL-18 variant K53G, S55P, R104K, H109Y (ligand) YFGKLESKLSVIRNLNDQVLFIDQGNRPLFEDMTDSDMRDNAPRTIFIISMYGDPQPRGMAVTISVKSEKISTLSSENKIISFKEMNPPDNIKDTKSDIIFFQKSVPGYDNKMQFESSSYEGYFLASEKERDLFKLILKKEDELGDRSIMFTVQNED | 0.12 | 0.09 | 0.09 | 1.72 | 1.3 | 1.2 | 0.21 | 0.12 | 0.1 |  |  |  |  |  |  |  |  | 
8 | IL-18 variant K53Y, S55G, Q56H (ligand) YFGKLESKLSVIRNLNDQVLFIDQGNRPLFEDMTDSDMRDNAPRTIFIISMYYDGHPRGMAVTISVKSEKISTLSSENKIISFKEMNPPDNIKDTKSDIIFFQRSVPGHDNKMQFESSSYEGYFLASEKERDLFKLILKKEDELGDRSIMFTVQNED | 0.3 | 0.21 | 0.18 | 0.86 | 0.7 | 0.63 | 0.26 | 0.15 | 0.11 |  |  |  |  |  |  |  |  | 
9 | IL-18 variant D23G, K53Y, S55Y (ligand) YFGKLESKLSVIRNLNDQVLFIGQGNRPLFEDMTDSDMRDNAPRTIFIISMYYDYQPRGMAVTISVKSEKISTLSSENKIISFKEMNPPDNIKDTKSDIIFFQRSVPGHDNKMQFESSSYEGYFLASEKERDLFKLILKKEDELGDRSIMFTVQNED | 0.11 | 0.1 | 0.1 | 2.29 | 1.09 | 1.13 | 0.25 | 0.1 | 0.11 |  |  |  |  |  |  |  |  | 
10 | IL-18 variant S7Y, K53H, S55M (ligand) YFGKLEYKLSVIRNLNDQVLFIDQGNRPLFEDMTDSDMRDNAPRTIFIISMYHDMQPRGMAVTISVKSEKISTLSSENKIISFKEMNPPDNIKDTKSDIIFFQRSVPGHDNKMQFESSSYEGYFLASEKERDLFKLILKKEDELGDRSIMFTVQNED | 0.16 | 0.15 | 0.18 | 1.33 | 0.94 | 0.98 | 0.21 | 0.14 | 0.18 |  |  |  |  |  |  |  |  | 
11 | IL-18 variant K53N, S55A, R104N, P107A, H109Y (ligand) YFGKLESKLSVIRNLNDQVLFIDQGNRPLFEDMTDSDMRDNAPRTIFIISMYNDAQPRGMAVTISVKSEKISTLSSENKIISFKEMNPPDNIKDTKSDIIFFQNSVAGYDNKMQFESSSYEGYFLASEKERDLFKLILKKEDELGDRSIMFTVQNED | 0.13 | 0.12 | 0.14 | 1.64 | 1.1 | 0.93 | 0.21 | 0.13 | 0.13 |  |  |  |  |  |  |  |  | 
12 | IL-18 variant G3L, E6Q, T63H, N91M, R104H (ligand) YFLKLQSKLSVIRNLNDQVLFIDQGNRPLFEDMTDSDMRDNAPRTIFIISMYKDSQPRGMAVHISVKSEKISTLSSENKIISFKEMNPPDMIKDTKSDIIFFQHSVPGHDNKMQFESSSYEGYFLASEKERDLFKLILKKEDELGDRSIMFTVQNED |  |  |  |  |  |  |  |  |  | 0.16 | 0.09 | 0.11 | 0.08 | 0.07 | 0.07 | 2.02 | 1.16 | 1.47

— patent publication US20240182536A1 (MURAL ONCOLOGY, published 2024)
